Measured values taken from US20160250307A1 (IMMATICS BIOTECHNOLOGIES, published 2016).
Square brackets hold non-standard residues; d marks the D form. Ends that are not written are not given here. pS = N[C@@H](COP(=O)(O)O)C(=O)O

Target: HLA-A*02 (human)
Experiment: UV-ligand exchange, anti-b2m ELISA; grade: exchange yield >=50%

Binder | peptide exchange yield
RVQEAIAEV | 50 to 75%
SLFGQDVKAV | 50 to 75%
SLFQGVEFHYV | 50 to 75%
SLLEKAGPEL | 50 to 75%
SLMGPVVHEV | 50 to 75%
TLMDMRLSQV | 50 to 75%
VLFQEALWHV | 50 to 75%
VLPNFLPYNV | 50 to 75%
VLYPSLKEI | 50 to 75%
SLLESNKDLLL | 50 to 75%
ALNENINQV | 50 to 75%
YLMEGSYNKV | 50 to 75%
SVLDQKILL | 50 to 75%
QQLDSKFLEQV | 50 to 75%
AILETAPKEV | 50 to 75%
ALIEGAGILL | 50 to 75%
ALLEENSTPQL | 50 to 75%
ATLNIIHSV | 50 to 75%
GLLAGDRLVEV | 50 to 75%
GQFPSYLETV | 50 to 75%
ILSGIGVSQV | 50 to 75%
KLDAFVEGV | 50 to 75%
KLLDLSDSTSV | 50 to 75%
LLDDSLVSI | 50 to 75%
ILDDNMQKL | 50 to 75%
QLIDYERQL | 50 to 75%
SLFSSPPEI | 50 to 75%

Binder | peptide exchange yield
SLLSGRISTL | 50 to 75%
TLFYSLREV | 50 to 75%
ALLRVTPFI | 50 to 75%
ALANQKLYSV | 50 to 75%
RVA[pS]PTSGV (phosphopeptide from IRS2) [RVAS*PTSGV] | 50 to 75%
ALYGKTEVV | 50 to 75%
FLEETKATV | 50 to 75%
RLYDPASGTISL | 50 to 75%
SLAEEKLQASV | 50 to 75%
SLDGKAALTEL | 50 to 75%
SLLHTIYEV | 50 to 75%
TLQDHLNSL | 50 to 75%
YIQDEINTI | 50 to 75%
YLGEGPRMV | 50 to 75%
YQMDIQQEL | 50 to 75%
LLHGHIVEL | 50 to 75%
SLAEGTATV | 50 to 75%
SLQESILAQV | 50 to 75%
ILNVDGLIGV | 50 to 75%
LLLPLLPPLSP | 50 to 75%
ALADVVHEA | 50 to 75%
ALDPKANFST | 50 to 75%
ALLAEGITWV | 50 to 75%
ALLGGNVRMML | 50 to 75%
AMAEMKVVL | 50 to 75%
FLLEQPEIQV | 50 to 75%
GLFNAELLEA | 50 to 75%
